Data taken from patent US20140017790A1, “CONTROL AGENT FOR CONTROLLING UNDIFFERENTIATED STATE AND USE THEREOF” (RIKEN, priority 2011, published 2014).

How the values were obtained:
Format in all cases: cell-based
[1] = test system: human iPS cells; assay: qRT-PCR of undifferentiated marker genes, feeder free versus feeder culture of human iPS cells; settings: feeder free with CCL2 and LIF, no bFGF, relative to feeder conditions with bFGF
Procedure: Specifically, human iPS cells were cultured under feeder conditions where bFGF was added and the CCL2 was not added, and under feeder free conditions where bFGF was not added and the CCL2 and LIF were added. Total RNAs then were extracted, and the expressions of undifferentiated marker genes were examined by the qRT-PCR. The culture under the feeder conditions was carried out in the same manner as in Example 8. The culture under the feeder free conditions was carried out in the same manner as in Example 12. Then, assuming that the expression level under the feeder condition was 1, the relative value with respect to this value was calculated as the fold change in expression level under the feeder free conditions.
FIG. 21 is a graph showing the fold changes in the expression of the undifferentiated marker genes in the human iPS cells. The vertical axis indicates the fold change (-fold), and the horizontal axis indicates the examined undifferentiated marker genes. The open bars show the results obtained under the feeder free conditions, and the solid bars show the results obtained under the feeder conditions.

[2] = test system: human iPS cells; assay: EB formation and spontaneous differentiation, cell morphology; settings: third day from the plating; iPS cells precultured 6 days with the substance
Procedure: Human iPS cells were cultured for 6 days under feeder conditions in the same manner as in Example 7. Thereafter, embryonic bodies (EBs) were produced. EB formation is known as a spontaneous differentiation-inducing method for inducing the differentiation of iPS cells. Specifically, first, a ROCK inhibitor (Y-27632, WAKO) was added to the culture solution being used for the culture of the human iPS cells so that the concentration thereof was […], and the human iPS cells were cultured for 1 hour under the conditions of 37° C. and 5% CO2. Then, the feeder cells used for the culture were dissociated with a human ES/iPS cell dissociation solution (CTK solution), and the human iPS cells were collected. Then, 1×10^6 of the human iPS cells were seeded in an ultra-low adhesion culture vessel, and cultured for 6 days in an EB preparation medium (DMEM/F12, Knockout SR, L-glutamine, NEAA (non-essential amino acid (GIBCO)), 2-ME, Pen/Strep). The medium was replaced every two days.
Next, spontaneous differentiation was induced. Specifically, the produced EBs were seeded in gelatin coated dishes so that each gelatin coated dish contained one EB. Each EB was cultured for 14 days in a medium (DMEM) containing 20% FBS, and then observed with a microscope. The medium was replaced every two days. The photographs in FIG. 18 show the cell morphology on the third day from the plating.

[3] = test system: human iPS cells; assay: differentiation of EBs to myocardial cells, morphology and Tropomyosin immunostaining; settings: 10th day from the plating; CCL2(+)/LIF(+) or CCL2(-)/bFGF(+) 5 ng/ml
From the text: It has been reported that, in general, according to the spontaneous differentiation-inducing method used in the above item (1), differentiation into myocardial cells is more liable to occur. Thus, regarding the cells on the 10th day from the plating in the above item (1), differentiation into myocardial cells was examined.
The morphology of the cells was examined with a microscope. Furthermore, they were immunostained with a Tropomyosin, which is a marker for myocardial cells. Also, culture of the cells, observation of the morphology, and staining were carried out in the same manner as in the above using a medium to which bFGF (5 ng/ml) has been added instead of the CCL2 and LIF.
The photographs in FIG. 19 show the morphologies of the cells on the 10th day from the plating of EB. […] Furthermore, in FIGS. 19A and 19B, the photographs on the left show the cell morphologies, and the photographs on the right show the stained cells. In the black and white photographs of FIG. 19, the stained portions are seen as light gray.

[4] = test system: mouse ES cells; assay: quantitative RT-PCR of undifferentiated marker genes in mouse ES cells; settings: LIF 1000 units/ml, CCL2 500 ng/ml
Procedure: A PrimeScript RT-PCR Kit (trade name, TAKARA BIO INC.), an ABI 7500 Fast real time PCR system (trade name, Applied BioSystems), and a SYBR (registered trademark) Premix Ex Taq (trade name, TAKARA BIO INC.) were used in accordance with their protocols. PCR was carried out by conducting 40 cycles of treatment with a treatment at 94° C. for 5 second and at 62.5° C. for 20 seconds as 1 cycle. The expression level of each gene was calculated by normalizing the relative amount of mRNA in the gene to Gapdh mRNA according to the 2^−ΔΔ^CT method (Thomse R, Solvsten C A, Linnet T E, et al., Analysis of qPCR data by converting exponentially related Ct values into linearly related XO values. J Bioinform Comput Biol 2010: 8: 885-900.).
[…] Furthermore, as a negative control, the expression levels of the undifferentiated marker genes were determined in the same manner regarding the mouse ES […] Then, the fold changes in the expression level relative to the negative control were calculated.
FIG. […] The vertical axis indicates the fold change (-fold), and the horizontal axis indicates the examined undifferentiated marker genes. […] In the former case (open bar), the concentration of the LIF in the medium was 1000 units/ml and the concentration of the CCL2 in the medium was 500 ng/ml. […]

B1: CCL2: mouse recombinant CCL2 (MCP-1, #479-JE-010, R&D Systems); in Examples 1, 3, 4(1), 5 mouse CCL2 (SEQ ID NO: 3) overexpressed from Ccl2 expression vector (protein, listed as Mus musculus)
chain: MQVPVMLLGLLFTVAGWSIHVLAQPDAVNAPLTCCYSFTSKMIPMSRLESYKRITSSRCPKEAVVFVTKLKREVCADPKKEWVQTYIKNLDRNQMRSEPTTLFKTASALRSSAPLNVKLTRKSEANASTTFSTTTSSTSVGVTSVTVN
expressions of the undifferentiated marker genes, fold change [1]: comparable
morphology of EB after spontaneous differentiation-inducing culture [2]: ES cell-like morphology
cell morphology of EBs, differentiation into myocardial cells [3]: most of them exhibited myocardial cell-like morphology
staining with Tropomyosin (marker for myocardial cells) [3]: entirely stained red
expression of the Klf4 gene, fold change relative to negative control [4]: increased markedly
expression of the Tbx3 gene, fold change relative to negative control [4]: increased markedly
